This is an account of results in patent publication US20190100594A1 (INHIBRX, published 2019).

Where two headings read alike, the source gives them in different places.

The target of assay [1] is T1, cyno GITR-CHO (cynomolgus monkey).
T1 construct: expressed on the surface of CHO cells, construct not described; also called cynomolgus GITR expressed on the surface of CHO cells
The assay can be described thus: flow cytometry on cyno GITR-CHO cells.

Assay [2] concerns the target T2, human GITR-CHO (human, UniProt Q9Y5U5).
T2 construct: expressed on the surface of CHO cells, construct not described; also called human GITR expressed on the surface of CHO cells
T2 sequence (looked up): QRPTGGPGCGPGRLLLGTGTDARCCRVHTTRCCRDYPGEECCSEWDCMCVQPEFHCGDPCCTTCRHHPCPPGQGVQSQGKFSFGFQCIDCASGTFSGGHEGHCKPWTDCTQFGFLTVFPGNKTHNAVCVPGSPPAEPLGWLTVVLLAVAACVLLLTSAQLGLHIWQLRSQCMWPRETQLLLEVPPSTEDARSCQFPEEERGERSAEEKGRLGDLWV
The assay can be described thus: flow cytometry on human GITR-CHO cells. For orientation: In flow cytometry, cells or beads pass a laser one at a time.

Assay [3] deals with T2, human GITR-CHO. The assay is described as follows: flow cytometry on human GITR-CHO cells. The source holds these as a separate data set.
In assay [4] the target is T1, cyno GITR-CHO. The assay is described as follows: flow cytometry on cyno GITR-CHO cells. This is another data set of the same source.
For assay [5], the target named is T2, human GITR-CHO. The assay is described as follows: flow cytometry on human GITR-CHO cells. The source holds these as a separate data set.
Assay [6] concerns the target T1, cyno GITR-CHO. The assay can be described thus: flow cytometry on cyno GITR-CHO cells. The source holds these as a separate data set.

B1: hzC06v3.3 (VHH)
VHH: EVQLLESGGGEVQPGGSLRLSCAASGSVFSIDAMGWYRQAPGKQRELVAVLSGISSAKYAESVKGRFTISRDSAKNAVYLQMDGLKPEDTAVYYCYADVSTGWGRDAHGYWGQGTLVTV
With B1, the EC50 (read off the curve) – broadly, the concentration that produces a half-maximal response – was around 5 nM in assay [1] and around 4 nM in assay [2].

B2: hzC06v3.9 (VHH)
VHH: EVQLLESGGGEVQPGGSLRLSCAASGSVFSIDAMGWYRQAPGKQRELVAVLSGISSAKYAASAPGRFTISRDNAKNTVYLQMSSLRAEDTAVYYCYADVSTGWGRDAHGYWGQGTLVTV
Regarding B2, the entries for the “EC50 (read off the curve)” value in assay [3] and in assay [4] were 1 to 2 nM and around 2 nM, respectively.

B3: hzC06v3.7 (VHH)
VHH: EVQLLESGGGEVQPGGSLRLSCAASGSVFSIDAMGWYRQAPGKQRELVAVLSGISSAKYAASAPGRFTISRDAVKNTVYLQMSSLRAEDTAVYYCYADVSTGWGRDAHGYWGQGTLVTV
Take B3: the “EC50 (read off the curve)” value in assay [3] was 1 to 2 nM; in assay [4], around 2 nM.

B4: hzC06v3.10 (VHH)
VHH: EVQLLESGGGEVQPGGSLRLSCAASGSVFSIDAMGWYRQAPGKQRELVAVLSGISSAKYADAVKGRFTISRASAPNTVYLQMSSLRAEDTAVYYCYADVSTGWGRDAHGYWGQGTLVTV
As for B4, the “EC50 (read off the curve)” value in assay [3] was 1 to 2 nM; in assay [4] it was around 2 nM.

B5: hzC06v3.6 (VHH)
VHH: EVQLLESGGGEVQPGGSLRLSCAASGSVFSIDAMGWYRQAPGKQRELVAVLSGISSAKYAESVKGRFTISRASAPNTVYLQMSSLRAEDTAVYYCYADVSTGWGRDAHGYWGQGTLVTV
Consider B5, for which the “EC50 (read off the curve)” value in assay [1] and in assay [2] was around 4 nM each time.

B6: hzC06v3.4 (VHH)
VHH: EVQLLESGGGEVQPGGSLRLSCAASGSVFSIDAMGWYRQAPGKQRELVAVLSGISSAKYAESVKGRFTISRDNAKNTVYLQMSSLRAEDTAVYYCYADVSTGWGRDAHGYWGQGTLVTV
For B6, the 50% effective concentration (EC50 (read off the curve)) is around 5 nM in assay [1] and around 4 nM in assay [2].

B7: hzC06v3.12 (VHH)
VHH: EVQLLESGGGEVQPGGSLRLSCAASGSVFSIDAMGWYRQAPGKQRELVAVLSGISSAKYAASAPGRFTISRASAPNTVYLQMSSLRAEDTAVYYCYADVSTGWGRDAHGYWGQGTLVTV
As to B7, the concentration for a half-maximal effect (EC50 (read off the curve)) is 1 to 2 nM in assay [3] and around 2 nM in assay [4].

B8: hzCC04v5.1 (VHH)
VHH: EVQLLESGGGEVQPGGSLRLSCAASGFTFSTHGMDWFRQAPGKDLEWVSAIQSGGSWTSYASSVKGRFTISRDNAKNTLYLEMNNLKPEDTAVYWCQNRVTRGQGTLVTV
notes: sheet prints hzCC04, text hzC04; also called hzC04v5.1
As for B8, the “EC50 (read off the curve)” value was around 4 nM in assay [5] and around 2 nM in assay [6].

B9: hzCC04v5.4 (VHH)
VHH: EVQLLESGGGEVQPGGSLRLSCAASGFTFSTHGMDWFRQAPGKDLEWVSAIQSGGSWTSYASSVKGRFTISRDNAKNTLYLQMSSLRPEDTAVYWCQNRVTRGQGTLVTV
notes: sheet prints hzCC04, text hzC04; also called hzC04v5.4
For B9, the results for the 50% effective concentration (EC50 (read off the curve)) in assay [5] and in assay [6] were around 4 nM and around 1 nM, respectively.

B10: hzCC04v5.3 (VHH)
VHH: EVQLLESGGGEVQPGGSLRLSCAASGFTFSTHGMDWFRQAPGKDLEWVSAIQSGGSWTSYASSVKGRFTISRDNAKNTLYLEMSSLRAEDTAVYWCQNRVTRGQGTLVTV
notes: sheet prints hzCC04, text hzC04; also called hzC04v5.3
On to B10, for which the “EC50 (read off the curve)” value was around 5 nM in assay [5] and around 2 nM in assay [6].

B11: hzCC04v5.2 (VHH)
VHH: EVQLLESGGGEVQPGGSLRLSCAASGFTFSTHGMDWFRQAPGKDLEWVSAIQSGGSWTSYASSVKGRFTISRDNAKNTLYLQMNNLRAEDTAVYWCQNRVTRGQGTLVTV
notes: sheet prints hzCC04, text hzC04; also called hzC04v5.2
Regarding B11, the “EC50 (read off the curve)” value in assay [5] was around 4 nM; in assay [6], around 1 nM.
